According to US20090291890A1 (published 2009):
“And” between values parts separate entries of the source, which are not always exact repeats. Identical values can stand only once.

T1: Mesyl-dFPR-ACC
T1 sequence (peptide, N-terminal mesyl; D-Phe at position 1 (dF); C-terminal ACC fluorophore): FPR


Key:
[1] = target: Factor X (Homo sapiens (Human)) (UniProt P00742)
Mesyl-dFPR-ACC = target: T1, Mesyl-dFPR-ACC

Row | kcat/KM (M^-1s^-1), TF-dependent assay [1] | Activity (µmol/sec/µmol), specific activity for mesyl-dFPR-ACC (µmol/sec/µmol) (Mesyl-dFPR-ACC) | kcat/KM, TF-independent assay [1] | kcat/KM, TF-dependent assay [1] [M⁻¹ s⁻¹] | Molecule
1 | 3.91e+07 M⁻¹ s⁻¹ | 1.22 | 10.2 M⁻¹ s⁻¹ and 19.6 M⁻¹ s⁻¹ | – | S52A/S60A/S222A-FVIIa (enzyme)
2 | 2.84e+08 M⁻¹ s⁻¹ | 1.92 | 192 M⁻¹ s⁻¹ | – | Gla swap FIX/S222A/Q286R/M298Q/H373F-FVIIa (enzyme)
3 | 1.81e+08 M⁻¹ s⁻¹ and 1.65e+08 M⁻¹ s⁻¹ | 3.28 | 1220 M⁻¹ s⁻¹ and 984 M⁻¹ s⁻¹ | – | V158D/E296V/M298Q-FVIIa (enzyme)
4 | – | 0.89 | – | 4.13e+07 | Gla swap FIX/A122N/G124S/A175S/S222A/Q286R-FVIIa (enzyme)
5 | 2.08e+08 M⁻¹ s⁻¹ | 1.16 | 814 M⁻¹ s⁻¹ | – | {Gla swap FIX/E40L}/Q286R/M298Q-FVIIa (enzyme)
6 | 6.77e+07 M⁻¹ s⁻¹ | 0.25 | – | – | GlaSwapFIX/S222A/T239I/Q286R-FVIIa (enzyme)
7 | 1.33e+08 M⁻¹ s⁻¹ | 2.83 | 30.7 M⁻¹ s⁻¹ | – | T128N/P129A/Q286R/M298Q/H373F-FVIIa (enzyme)
8 | 2.08e+07 M⁻¹ s⁻¹ | 2.68 | – | – | A122N/G124S/A175S/S222A-FVIIa (enzyme)
9 | 1.77e+08 M⁻¹ s⁻¹ | 5.02 | 63.3 M⁻¹ s⁻¹ | – | S52A/S60A/Q286R/M298Q/H373F-FVIIa (enzyme)
10 | 2.49e+08 M⁻¹ s⁻¹ | 0.98 | 116 M⁻¹ s⁻¹ | – | S52A/S60A/S222A/H257A/Q286R/M298Q-FVIIa (enzyme)
11 | 2.73e+08 M⁻¹ s⁻¹ and 2.91e+08 M⁻¹ s⁻¹ | 1.2 | 902 M⁻¹ s⁻¹ and 794 M⁻¹ s⁻¹ | – | {Gla swap FIX/K43I}/Q286R/M298Q-FVIIa (enzyme)
12 | 8.53e+07 M⁻¹ s⁻¹ | 0.49 | – | – | Gla swap FIX/Q286R/S222A/H257S-FVIIa (enzyme)
13 | – | 2.78 | – | 5.72e+07 | T128N/P129A/A175S/Q286R/M298Q/H373F-FVIIa (enzyme)
14 | 3.33e+07 M⁻¹ s⁻¹ | 1.88 | 3.3 M⁻¹ s⁻¹ | – | T128N/P129A/A175S/Q286R-FVIIa (enzyme)
15 | 3.87e+07 M⁻¹ s⁻¹ | 2.24 | 3.4 M⁻¹ s⁻¹ | – | A122N/G124S-FVIIa (enzyme) ANAFLEELRPGSLERECKEEQCSFEEAREIFKDAERTKLFWISYSDGDQCASSPCQNGGSCKDQLQSYICFCLPAFEGRNCETHKDDQLICVNENGGCEQYCSDHTGTKRSCRCHEGYSLLNDSVSCTPTVEYPCGKIPILEKRNASKPQGRIVGGKVCPKGECPWQVLLLVNGAQLCGGTLINTIWVVSAAHCFDKIKNWRNLIAVLGEHDLSEHDGDEQSRRVAQVIIPSTYVPGTTNHDIALLRLHQPVVLTDHVVPLCLPERTFSERTLAFVRFSLVSGWGQLLDRGATALELMVLNVPRLMTQDCLQQSRKVGDSPNITEYMFCAGYSDGSKDSCKGDSGGPHATHYRGTWYLTGIVSWGQGCATVGHFGVYTRVSQYIEWLQKLMRSEPRPGVLLRAPFP
16 | 1.18e+08 M⁻¹ s⁻¹ | 2.64 | 3.1 M⁻¹ s⁻¹ | – | H257S-FVIIa (enzyme) ANAFLEELRPGSLERECKEEQCSFEEAREIFKDAERTKLFWISYSDGDQCASSPCQNGGSCKDQLQSYICFCLPAFEGRNCETHKDDQLICVNENGGCEQYCSDHTGTKRSCRCHEGYSLLADGVSCTPTVEYPCGKIPILEKRNASKPQGRIVGGKVCPKGECPWQVLLLVNGAQLCGGTLINTIWVVSAAHCFDKIKNWRNLIAVLGEHDLSEHDGDEQSRRVAQVIIPSTYVPGTTNHDIALLRLHQPVVLTDSVVPLCLPERTFSERTLAFVRFSLVSGWGQLLDRGATALELMVLNVPRLMTQDCLQQSRKVGDSPNITEYMFCAGYSDGSKDSCKGDSGGPHATHYRGTWYLTGIVSWGQGCATVGHFGVYTRVSQYIEWLQKLMRSEPRPGVLLRAPFP

Continued, molecule first:

Row | Molecule | kcat/KM (M^-1s^-1), TF-dependent assay [1] | Activity (µmol/sec/µmol), specific activity for mesyl-dFPR-ACC (µmol/sec/µmol) (Mesyl-dFPR-ACC) | kcat/KM, TF-independent assay [1] | kcat/KM, TF-dependent assay [1] [M⁻¹ s⁻¹]
17 | Gla swap FIX/T239V/Q286R/M298Q-FVIIa (enzyme) | 2.53e+08 M⁻¹ s⁻¹ and 1.79e+08 M⁻¹ s⁻¹ | 1.13 | – | –
18 | T128N/P129A/A175S/Q366V-FVIIa (enzyme) | 3.38e+07 M⁻¹ s⁻¹ | 3.4 | 3.4 M⁻¹ s⁻¹ | –
19 | A122N/G124S/A175S/S222A/H257A/Q286R/M298Q-FVIIa (enzyme) | – | 1.99 | – | 8.4e+07
20 | A122N/G124S/A175S/Q366V-FVIIa (enzyme) | 3.02e+07 M⁻¹ s⁻¹ | 2.34 | 3 M⁻¹ s⁻¹ | –
21 | Gla swap FIX/T128N/P129A/Q286R/M298Q-FVIIa (enzyme) | 2.11e+08 M⁻¹ s⁻¹ and 1.99e+08 M⁻¹ s⁻¹ | 0.78 | – | –
22 | Gla swap FIX/T128N/P129A/S222A/Q286R-FVIIa (enzyme) | 1.47e+08 M⁻¹ s⁻¹ and 1.43e+08 M⁻¹ s⁻¹ | 0.53 | 15.5 M⁻¹ s⁻¹ and 21.3 M⁻¹ s⁻¹ | –
23 | S52A/S60A/V158D/E296V/M298Q-FVIIa (enzyme) | 2e+08 M⁻¹ s⁻¹ | 2.56 | 1760 M⁻¹ s⁻¹ | –
24 | {Gla swap FIX/Q44S}/Q286R/M298Q-FVIIa (enzyme) | 1.98e+08 M⁻¹ s⁻¹ | 1.11 | 729 M⁻¹ s⁻¹ | –
25 | S52A/S60A/Q286R/M298Q-FVIIa (enzyme) | 1.25e+08 M⁻¹ s⁻¹ | 1.08 | 217 M⁻¹ s⁻¹ | –
26 | Gla swap FIX/S52A/S60A/S222A/Q286R-FVIIa (enzyme) | 7.24e+07 M⁻¹ s⁻¹ | 0.44 | 2.9 M⁻¹ s⁻¹ | –
27 | A122N/G124S/A175S/Q286R/M298Q/H373F-FVIIa (enzyme) | – | 2.71 | – | 8.39e+07
28 | T128N/P129A/Q286R/H373F-FVIIa (enzyme) | 6.91e+07 M⁻¹ s⁻¹ | 2.31 | 6.6 M⁻¹ s⁻¹ | –
29 | T128N/P129A/A175S/Q286R/M298Q-FVIIa (enzyme) | – | 2.02 | – | 7.21e+07
30 | T128N/P129A/A175S/S222A/H257A/Q286R/M298Q-FVIIa (enzyme) | – | 21.8 | – | 6.89e+07
31 | Gla swap FIX/S222A/Q286R/H373F-FVIIa (enzyme) | 1.22e+08 M⁻¹ s⁻¹ | 1.37 | 81.2 M⁻¹ s⁻¹ | –
32 | S52A/S60A/Q286R-FVIIa (enzyme) | 4.1e+07 M⁻¹ s⁻¹ | 0.44 | – | –
33 | T128N/P129A/Q286R/M298Q-FVIIa (enzyme) | 1.86e+08 M⁻¹ s⁻¹ and 1.5e+08 M⁻¹ s⁻¹ | 1.8 | 81.6 M⁻¹ s⁻¹ and 212 M⁻¹ s⁻¹ | –
34 | S52A/S60A-FVIIa (enzyme) | 3.56e+07 M⁻¹ s⁻¹ | 1.95 | 3.8 M⁻¹ s⁻¹ | –
35 | T128N/P129A/A175S/S222A-FVIIa (enzyme) | 1.72e+07 M⁻¹ s⁻¹ | 3.19 | 1.9 M⁻¹ s⁻¹ | –
36 | T128N/P129A/S222A/H257A/Q286R/M298Q-FVIIa (enzyme) | 1.55e+08 M⁻¹ s⁻¹ and 1.73e+08 M⁻¹ s⁻¹ | 1.66 | – | –
37 | {Gla swap FIX/M19K}/Q286R/M298Q-FVIIa (enzyme) | 1.41e+08 M⁻¹ s⁻¹ | 1.26 | 512 M⁻¹ s⁻¹ | –
38 | A122N/G124S/A175S/Q286R-FVIIa (enzyme) | 4.11e+07 M⁻¹ s⁻¹ | 2.16 | 3 M⁻¹ s⁻¹ | –
39 | T128N/P129A/V158D/E296V/M298Q-FVIIa (enzyme) | 2.01e+08 M⁻¹ s⁻¹ | 3.26 | 1380 M⁻¹ s⁻¹ | –
40 | Gla swapFIX/Q366V-FVIIa (enzyme) | 9.11e+07 M⁻¹ s⁻¹ | 2.82 | 90 M⁻¹ s⁻¹ | –
41 | Q286R-FVIIa (enzyme) | 8.06e+07 M⁻¹ s⁻¹ | 1.24 | 10.3 M⁻¹ s⁻¹ | –
42 | T128N/P129A/Q286R-FVIIa (enzyme) | 8.45e+07 M⁻¹ s⁻¹ and 6.2e+07 M⁻¹ s⁻¹ | 1.21 | 8.7 M⁻¹ s⁻¹ and 10.5 M⁻¹ s⁻¹ | –
43 | H373F-FVIIa (enzyme) ANAFLEELRPGSLERECKEEQCSFEEAREIFKDAERTKLFWISYSDGDQCASSPCQNGGSCKDQLQSYICFCLPAFEGRNCETHKDDQLICVNENGGCEQYCSDHTGTKRSCRCHEGYSLLADGVSCTPTVEYPCGKIPILEKRNASKPQGRIVGGKVCPKGECPWQVLLLVNGAQLCGGTLINTIWVVSAAHCFDKIKNWRNLIAVLGEHDLSEHDGDEQSRRVAQVIIPSTYVPGTTNHDIALLRLHQPVVLTDHVVPLCLPERTFSERTLAFVRFSLVSGWGQLLDRGATALELMVLNVPRLMTQDCLQQSRKVGDSPNITEYMFCAGYSDGSKDSCKGDSGGPHATHYRGTWYLTGIVSWGQGCATVGFFGVYTRVSQYIEWLQKLMRSEPRPGVLLRAPFP | 5.58e+07 M⁻¹ s⁻¹ | 1.17 | – | –
